The text below walks through data of the supplement of paper PMC5998384.

The test system of series [1] is HeLa Kyoto. The series is described as follows: solubility change mitosis vs G1/S (difference of NP-40 vs SDS log2 ratios) (log2 ratio difference); higher = more soluble in mitosis.
Series [2] deals with HeLa Kyoto. The series is described as follows: thermal stability score vs G1/S (z-score of summed log2 fold changes over temperatures); higher = more thermally stable than in G1/S.
The test system of series [3] is HeLa Kyoto. The series is described as follows: solubility in G1/S (NP-40 vs SDS abundance) (log2 ratio); higher = more soluble. Conditions: cell cycle stage: G1/S.
In series [4] the test system is HeLa Kyoto. The series is described as follows: melting temperature (median over replicates), in situ; higher = more thermally stable.
The mark [5] stands for this setting: cell cycle stage: early G1 (4.5 h after nocodazole release).
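For melting temperature (median over replicates), in situ in this document: HeLa Kyoto cells synchronized by double thymidine or nocodazole block, proteins quantified by TMT10plex mass spectrometry, three independent biological replicates.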
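For solubility change mitosis vs G1/S (difference of NP-40 vs SDS log2 ratios) in this document: synchronized HeLa Kyoto cells (double thymidine block for G1/S, nocodazole release for mitosis), protein amounts in NP-40 versus SDS lysates quantified by mass spectrometry, three biological replicates.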
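For solubility in G1/S (NP-40 vs SDS abundance) in this document: HeLa Kyoto cells arrested at G1/S by double thymidine block, proteins quantified by TMT10plex mass spectrometry in mild NP-40 versus SDS extracts, three biological replicates.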
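For thermal stability score vs G1/S (z-score of summed log2 fold changes over temperatures) in this document: synchronized HeLa Kyoto cells, proteins quantified by TMT10plex mass spectrometry, three biological replicates, mitosis taken 0.5 h after nocodazole release, G1/S directly after double thymidine block.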

Regarding “MSWFVDLAGKAEDLLNRVDQGAATALSRKDNASNIYSKNTDYTELHQQNTDLIYQTGPKSTYISSAADNIRNQKATILAGTANVKVGSRTPVEASHPVENASVPRPSSHFVRRKKSEPDDELLFDFLNSSQKEPTGRVEIRKEKGKTPVFQSSQTSSVSSVNPSVTTIKTIEENSFGSQTHEAASNSDSSHEGQEESSKENVSSNAACPDHTPTPNDDGKSHELSNLRLENQLLRNEVQSLNQEMASLLQRSKETQEELNKARARVEKWNADHSKSDRMTRGLRAQVDDLTEAVAAKDSQLAVLKVRLQEADQLLSTRTEALEALQSEKSRIMQDQSEGNSLQNQALQTFQERLHEADATLKREQESYKQMQSEFAARLNKVEMERQNLAEAITLAERKYSDEKKRVDELQQQVKLYKLNLESSKQELIDYKQKATRILQSKEKLINSLKEGSGFEGLDSSTASSMELEELRHEKEMQREEIQKLMGQIHQLRSELQDMEAQQVNEAESAREQLQDLHDQIAGQKASKQELETELERLKQEFHYIEEDLYRTKNTLQSRIKDRDEEIQKLRNQLTNKTLSNSSQSELENRLHQLTETLIQKQTMLESLSTEKNSLVFQLERLEQQMNSASGSSSNGSSINMSGIDNGEGTRLRNVPVLFNDTETNLAGMYGKVRKAASSIDQFSIRLGIFLRRYPIARVFVIIYMALLHLWVMIVLLTYTPEMHHDQPYGK [GOLGA5]”, in the series on HeLa Kyoto [1], the “solubility change mitosis (log2)” value is -0.148. The thermal stability score stood at 1.32 in the series on HeLa Kyoto [2] (setting [5]) and 2.34 in the series with HeLa Kyoto [2] (cell cycle stage: mitosis). Moreover, in the series on HeLa Kyoto [3], the “solubility in G1/S (log2)” value worked out at 0.284. For the same sequence, the melting temperature in the series on HeLa Kyoto [4] (cell cycle stage: G1/S) was found to be 52.7 °C; with HeLa Kyoto [4] (cell cycle stage: mitosis) it was 53 °C.
In the case of “MSWLFGINKGPKGEGAGPPPPLPPAQPGAEGGGDRGLGDRPAPKDKWSNFDPTGLERAAKAARELEHSRYAKDALNLAQMQEQTLQLEQQSKLKEYEAAVEQLKSEQIRAQAEERRKTLSEETRQHQARAQYQDKLARQRYEDQLKQQQLLNEENLRKQEESVQKQEAMRRATVEREMELRHKNEMLRVEAEARARAKAERENADIIREQIRLKAAEHRQTVLESIRTAGTLFGEGFRAFVTDWDKVTATVAGLTLLAVGVYSAKNATLVAGRFIEARLGKPSLVRETSRITVLEALRHPIQVSRRLLSRPQDALEGVVLSPSLEARVRDIAIATRNTKKNRSLYRNILMYGPPGTGKTLFAKKLALHSGMDYAIMTGGDVAPMGREGVTAMHKLFDWANTSRRGLLLFVDEADAFLRKRATEKISEDLRATLNAFLYRTGQHSNKFMLVLASNQPEQFDWAINDRINEMVHFDLPGQEERERLVRMYFDKYVLKPATEGKQRLKLAQFDYGRKCSEVARLTEGMSGREIAQLAVSWQATAYASEDGVLTEAMMDTRVQDAVQQHQQKMCWLKAEGPGRGDEPSPS [ATAD3A]”, the “solubility change mitosis (log2)” value in the series on HeLa Kyoto [1] is -0.0269. Moreover, the thermal stability score in the series on HeLa Kyoto [2] (setting [5]) was -0.608; in the series on HeLa Kyoto [2] (cell cycle stage: mitosis), 0.271. The “solubility in G1/S (log2)” value in the series with HeLa Kyoto [3] is -0.0262. Moreover, the melting temperature stood at 50.5 °C in the series with HeLa Kyoto [4] (cell cycle stage: G1/S) and 51 °C in the series with HeLa Kyoto [4] (cell cycle stage: mitosis).
As to “MSWVQATLLARGLCRAWGGTCGAALTGTSISQVPRRLPRGLHCSAAAHSSEQSLVPSPPEPRQRPTKALVPFEDLFGQAPGGERDKASFLQTVQKFAEHSVRKRGHIDFIYLALRKMREYGVERDLAVYNQLLNIFPKEVFRPRNIIQRIFVHYPRQQECGIAVLEQMENHGVMPNKETEFLLIQIFGRKSYPMLKLVRLKLWFPRFMNVNPFPVPRDLPQDPVELAMFGLRHMEPDLSARVTIYQVPLPKDSTGAADPPQPHIVGIQSPDQQAALARHNPARPVFVEGPFSLWLRNKCVYYHILRADLLPPEEREVEETPEEWNLYYPMQLDLEYVRSGWDNYEFDINEVEEGPVFAMCMAGAHDQATMAKWIQGLQETNPTLAQIPVVFRLAGSTRELQTSSAGLEEPPLPEDHQEEDDNLQRQQQGQS [ECSIT]”, in the series on HeLa Kyoto [1], the “solubility change mitosis (log2)” value is -0.1. The figures for the thermal stability score in the series with HeLa Kyoto [2] (setting [5]) and in the series with HeLa Kyoto [2] (cell cycle stage: mitosis) were 2.4 and 3.63, respectively. Besides, the “solubility in G1/S (log2)” value with HeLa Kyoto [3] was -0.0136. Moreover, the melting temperature was found to be 54.4 °C with HeLa Kyoto [4] (cell cycle stage: G1/S) and 56.1 °C in the series with HeLa Kyoto [4] (cell cycle stage: mitosis).
In the case of “MTCYRGFLLGSCCRVAGGRAAALRGPGAGGPAARPRLGGDGGGRRHLGQGQPRELAGCGSRADGGFRPSRVVVVAKTTRYEFEQQRYRYAELSEEDLKQLLALKGSSYSGLLERHHIHTKNVEHIIDSLRNEGIEVRLVKRREYDEETVRWADAVIAAGGDGTMLLAASKVLDRLKPVIGVNTDPERSEGHLCLPVRYTHSFPEALQKFYRGEFRWLWRQRIRLYLEGTGINPVPVDLHEQQLSLNQHNRALNIERAHDERSEASGPQLLPVRALNEVFIGESLSSRASYYEISVDDGPWEKQKSSGLNLCTGTGSKAWSFNINRVATQAVEDVLNIAKRQGNLSLPLNRELVEKVTNEYNESLLYSPEEPKILFSIREPIANRVFSSSRQRCFSSKVCVRSRCWDACMVVDGGTSFEFNDGAIASMMINKEDELRTVLLEQ [NADK2]”, the “solubility change mitosis (log2)” value in the series on HeLa Kyoto [1] was -0.121. Moreover, the thermal stability score is -0.37 in the series with HeLa Kyoto [2] (setting [5]) and 2.77 in the series on HeLa Kyoto [2] (cell cycle stage: mitosis). For the same sequence, the “solubility in G1/S (log2)” value in the series with HeLa Kyoto [3] was 0.0487. Besides, the figures for the melting temperature in the series with HeLa Kyoto [4] (cell cycle stage: G1/S) and in the series with HeLa Kyoto [4] (cell cycle stage: mitosis) were 55.3 °C and 55.5 °C, respectively.
